Laboratory results: patent publication US20190077860A1 (EISAI R AND D MANAGEMENT, published 2019)

Key:
[1] = biological target: T1, mouse EphA4 extracellular region-SEAP-His protein (mouse); assay: competition ELISA, competitor biotinylated mouse Ephrin B2-Fc; first value printed
Procedure: Antibody A-Fab and antibody A-F(ab′)₂ obtained in Example 5 were evaluated for their inhibitory activity against the binding between EphA4 and its ligand according to the following steps. Each well of a 96-well plate (Nunc) was coated with an anti-alkaline phosphatase antibody (Thermo Fisher Scientific). After incubation overnight at 4° C., each well was blocked with 1% BlockAce (DS Pharma Biomedical) at room temperature for 1 hour. After washing with 0.05% Tween 20/PBS (Thermo Fisher Scientific) three times, the mouse EphA4 extracellular region-SEAP-His protein obtained by the method of Example 1 was added (final concentration: 10 nM) to each well and incubated at room temperature for 1 hour. After washing three times, a ligand and serially diluted antibody A (0, 0.003, 0.01, 0.03, 0.1, 0.3, 1, 3, 10, 30, 100, 300, 1000, and 3000 nM), antibody A-Fab (0, 0.003, 0.01, 0.03, 0.1, 0.3, 1, 3, 10, 30, 100, 300, 1000, and 3000 nM), antibody A-F(ab′)₂ (0, 0.003, 0.01, 0.03, 0.1, 0.3, 1, 3, 10, 30, 100, 300, 1000, and 3000 nM), or the EphA4 inhibitor KYL peptide ([…], 0, 0.0003, 0.001, 0.003, 0.01, 0.03, 0.1, 0.3, 1, 3, 10, 30, 100, 300, 1000, and 3000 μM, its synthesis was outsourced to Toray Research Center) were added to each well. […] The absorbance at 450 nm was read using a microplate reader (Molecular Devices or PerkinElmer). […]

[2] = biological target: T1, mouse EphA4 extracellular …; assay: SPR (Biacore T200), mouse EphA4 extracellular region-SEAP-His captured on an anti-His antibody CM5 chip, antibody as analyte at 0.6-50 nM, 1:1 fit
Procedure: Next, the binding affinity of antibody A-Fab and antibody A-F(ab′)₂ for mouse and human EphA4 was determined by surface plasmon resonance (SPR) using Biacore T200 (GE Healthcare). Antibody A obtained in Example 1 was used as a control for the comparison of each fragment. First, an anti-His tag antibody was immobilized on sensor chip CM5. The immobilization of the anti-His tag antibody on sensor chip CM5 was performed by the amine coupling method using N-hydroxysuccinimide (NHS) and N-ethyl-N′-(3-dimethylaminopropyl)carbodiimide hydrochloride (EDC). Ethanolamine was used in blocking (the sensor chip and the reagents for immobilization were all manufactured by GE Healthcare). The antibody was diluted with a buffer solution for immobilization (10 mM sodium acetate, pH 4.5) into 3 μg/mL and immobilized on the sensor chip according to the protocol attached to Biacore T200.
Mouse or human EphA4 extracellular region-SEAP-His protein was diluted with a running buffer solution HBS-EP (GE Healthcare, BR-1001-88), injected onto a flow cell for 120 seconds, and captured (amount of the protein captured: approximately 10 to 20 RU). Subsequently, antibody A (50, 16.7, 5.6, 1.9, 0.6, and 0 nM), antibody A-Fab (500, 166.7, 55.6, 18.5, 6.2, and 0 nM), or antibody A-F(ab′)₂ (50, 16.7, 5.6, 1.9, 0.6, and 0 nM) serially diluted using HBS-EP was added to the sensor chip for 120 seconds. Binding reaction curves were sequentially observed at the time of the addition (association phase, for 120 sec) and after the completion of the addition (dissociation phase, for 900 sec). After the completion of each observation, the sensor chip was regenerated by the addition of 3 M MgCl₂ (Wako Pure Chemical Industries) (for 30 sec). The obtained binding reaction curves were subjected to fitting analysis with 1:1 binding models using software BIA evaluation attached to the system to calculate the binding affinity (KD=kd/ka) for mouse and human EphA4.

[3] = biological target: T2, human EphA4 extracellular region-SEAP-His protein (human, UniProt P54764 20-547); assay: competition ELISA, competitor human Ephrin A5-Fc
T2 construct: also called hEphA4-SEAP-His
Procedure: Antibody A obtained in Example 1 was evaluated for its inhibitory activity against the binding between human EphA4 and its human ligand according to the following steps. Each well of a 96-well plate (Nunc) was coated with an anti-alkaline phosphatase antibody (Thermo Fisher Scientific). After incubation overnight at 4° C., each well was blocked with 1% BlockAce (DS Pharma Biomedical) at room temperature for 1 hour. After washing with 0.05% Tween 20/PBS (Thermo Fisher Scientific) three times, the human EphA4 extracellular region-SEAP-His protein obtained by the method of Example 1 was added (final concentration: 10 nM) to each well and incubated at room temperature for 1 hour. After washing three times, ligands and serially diluted antibody A (0, 0.003, 0.01, 0.03, 0.1, 0.3, 1, 3, 10, 30, 100, 300, 1000, and 3000 nM) or an EphA4 inhibitor KYL peptide ([…], 0, 0.003, 0.01, 0.03, 0.1, 0.3, 1, 3, 10, 30, 100, 300, 1000, and 3000 μM, its synthesis was outsourced to Toray Research Center) were added to each well. The ligands used were biotinylated human Ephrin A5-Fc chimera (R&D Systems, final concentration: 0.7 nM) and biotinylated human Ephrin B3-Fc chimera (R&D Systems, final concentration: 2.3 nM). […] The absorbance at 450 nm was read using a microplate reader (Molecular Devices or PerkinElmer). […]

T1 sequence (chain, as listed by the source limits assumed): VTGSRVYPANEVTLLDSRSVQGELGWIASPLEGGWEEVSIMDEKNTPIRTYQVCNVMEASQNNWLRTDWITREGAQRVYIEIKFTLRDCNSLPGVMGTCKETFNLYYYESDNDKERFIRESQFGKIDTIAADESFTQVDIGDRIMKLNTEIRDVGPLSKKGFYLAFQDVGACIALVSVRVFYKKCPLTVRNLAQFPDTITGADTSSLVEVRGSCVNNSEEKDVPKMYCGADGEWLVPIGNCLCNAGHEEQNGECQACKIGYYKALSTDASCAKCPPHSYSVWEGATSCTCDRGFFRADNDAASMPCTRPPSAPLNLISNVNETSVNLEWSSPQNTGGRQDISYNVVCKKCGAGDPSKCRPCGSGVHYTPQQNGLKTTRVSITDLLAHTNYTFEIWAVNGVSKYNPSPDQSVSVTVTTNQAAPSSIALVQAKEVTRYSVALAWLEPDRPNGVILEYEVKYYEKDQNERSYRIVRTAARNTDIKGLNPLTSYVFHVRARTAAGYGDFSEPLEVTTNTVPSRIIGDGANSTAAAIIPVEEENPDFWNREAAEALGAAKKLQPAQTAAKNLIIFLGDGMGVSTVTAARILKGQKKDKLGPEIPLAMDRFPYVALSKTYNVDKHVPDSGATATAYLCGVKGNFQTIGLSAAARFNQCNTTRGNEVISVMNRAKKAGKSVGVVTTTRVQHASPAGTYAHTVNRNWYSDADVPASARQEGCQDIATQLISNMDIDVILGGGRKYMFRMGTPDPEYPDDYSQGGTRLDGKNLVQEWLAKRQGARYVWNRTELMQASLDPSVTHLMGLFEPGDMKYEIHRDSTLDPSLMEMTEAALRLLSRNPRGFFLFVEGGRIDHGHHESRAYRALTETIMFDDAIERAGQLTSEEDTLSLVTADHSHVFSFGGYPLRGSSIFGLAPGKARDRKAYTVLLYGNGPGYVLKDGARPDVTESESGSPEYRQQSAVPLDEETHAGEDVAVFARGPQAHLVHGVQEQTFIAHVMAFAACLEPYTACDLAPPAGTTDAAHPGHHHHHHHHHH
T2 sequence (P54764 20-547): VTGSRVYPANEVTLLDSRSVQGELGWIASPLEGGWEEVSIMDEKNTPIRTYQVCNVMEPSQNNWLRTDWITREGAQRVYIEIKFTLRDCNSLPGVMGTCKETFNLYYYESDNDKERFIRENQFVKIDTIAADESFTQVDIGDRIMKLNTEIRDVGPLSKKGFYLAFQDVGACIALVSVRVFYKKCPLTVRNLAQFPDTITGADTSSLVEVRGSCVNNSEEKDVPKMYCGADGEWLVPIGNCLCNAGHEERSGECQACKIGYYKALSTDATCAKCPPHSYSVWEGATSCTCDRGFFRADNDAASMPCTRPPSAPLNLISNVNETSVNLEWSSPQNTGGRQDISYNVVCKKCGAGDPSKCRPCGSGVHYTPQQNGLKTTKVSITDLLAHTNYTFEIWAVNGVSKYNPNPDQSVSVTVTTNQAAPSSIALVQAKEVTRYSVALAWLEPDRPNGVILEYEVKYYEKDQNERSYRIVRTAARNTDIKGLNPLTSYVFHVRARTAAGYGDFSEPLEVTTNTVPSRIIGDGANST

- IC50 [1]: 2.6 nM
- Kd [2]: 0.147 nM
- koff [2]: 0.000423 s⁻¹
- kon [2]: 2.88e+06 M⁻¹ s⁻¹
- IC50 [3]: ~2.7 nM
B1: antibody A (antibody, mouse IgG1, kappa, V domains shown)
VH: QIQLVQSGPELKKPGETVKISCKASGYTFTDYSMHWVKQAPGKGLKWMGWINTETGEPTYADDFKGRFAFSLETSASTAYLQINNLKNEDTATYFCARIPLYYYGSRYWYFDVWGAGTTVTVSS
VL: DIQMTQSPASLSVSVGETVTITCRASENIYRNLAWYQQKQGKSPQLLVYAATNLADGVPSRFSGSGSGTQYSLKINSLQSEDFGSYYCQHFWGTPWTFGGGTKLEIKR
notes: mouse IgG1 heavy chain, kappa light chain; purified from hybridoma supernatant; also called anti-EphA4 monoclonal antibody; antibody A-IgG
